Where a chain is given by its changes, count along the chain named. In names and notes the source's numbering stands. Read-outs that look alike come from different tables or passages of the source.
Columns and labels:
[1] = target: IgE antibodies of the individual allergic patient serum II/12; assay: EAST inhibition, individual serum II/12
[2] = target: IgE antibodies of the individual allergic patient serum II/3; assay: EAST inhibition, individual serum II/3
[3] = target: IgE antibodies of the individual allergic patient serum II/17; assay: EAST inhibition, individual serum II/17
[4] = test system: IgE antibodies of allergic patients; assay: EAST inhibition test (IgE reactivity / allergenicity); format: binding, human; conditions: for IC50: read-out: Inhibition value 50% (concentration of the inhibitor at 50% inhibition); for Allergenic potency (Prel) 25%: relative to native Phl p 5b at 25% inhibition; for Allergenic potency (Prel) 50%: relative to native Phl p 5b at 50% inhibition; for EAST inhibition curve / inhibitory effect (in words): serum pool Bor 18/100 (20 donors), FIG. 1; for Allergenicity from EAST inhibition curves (in words): serum pool We 6/97 and individual sera II3, II12, II17, FIGS. 2-5
Outline: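 Plates coated with natural or recombinant Ph1 p 5 or Ph1 p 5b (1 μg/ml), BSA-blocked, incubated with allergic patient sera (pool of 10-30 donors or individual) plus soluble allergen mutants as inhibitors. Bound IgE detected by enzyme-coupled anti-IgE; inhibition curves referenced to purified natural Ph1 p 5b.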

[5] = test system: Phl p 5b-reactive T cell lines (TCLs) from allergic patients; assay: Proliferative reaction of Phl p 5b-reactive oligoclonal T cell lines ([3H]-thymidine incorporation); format: cell-based, human; conditions: secondary activator 0.3 μM; for Incorporation of [3H]-thymidine into TCL 5 17.4 (stimulation index class): primary stimulator r Phl p 5; for Incorporation of [3H]-thymidine into TCL 7 19.2 (stimulation index class) / Incorporation of [3H]-thymidine into TCL 8 20.1 (stimulation index class): primary stimulator r Phl p 5b
Outline: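 T cell lines from grass-pollen-allergic patients were raised by repeated stimulation with Phl p 5b allergens. TCL blasts (2×10^4/ml) were cultured with irradiated autologous APCs (5×10^4/ml) and 10-20 μg antigen for 56 h, then given [3H]-thymidine for 16 h. Stimulation index is cpm with antigen over cpm without.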

[6] = target: IgE antibodies of the allergic patient serum pool Bor 18/100 (20 donors); assay: EAST inhibition, serum pool Bor 18/100
[7] = target: IgE antibodies of the allergic patient serum pool We 6/97; assay: EAST inhibition, serum pool We 6/97
[8] = allergic patient serum pool Bor 18/100
[9] = allergic patient serum pool We 6/97
[10] = individual allergic patient serum II/3
[11] = individual allergic patient serum II/12
[12] = individual allergic patient serum II/17

B1: rPhl p 5b point mutant PM1 (N32D, D49L, K50A) (protein)
chain: ADAGYAPATPAAAGAAAGKATTEEQKLIEDIDVGFKAAVAAAASVPAALAFKTFEAAFTSSSKAAAAKAPGLVPKLDAAYSVAYKAAVGATPEAKFDSFVASLTEALRVIAGALEVHAVKPVTEEPGMAKIPAGELQIIDKIDAAFKVAATAAATAPADDKFTVFEAAFNKAIKESTGGAYDTYKCIPSLEAAVKQAYAATVAAAPQVKYAVFEAALTKAITAMSEVQKVSQPATGAATVAAGAATTAAGAASGAATVAAGGYKV
- IC50 [1]: 83 nM
- allergenic potency (Prel) at 25% inhibition (relative to native Phl p 5b) [1]: 0.391
- allergenic potency (Prel) at 50% inhibition (relative to native Phl p 5b) [1]: 0.082
- inhibition value (inhibitor concentration at 25% inhibition) [1]: 1.3e-09 mol/L
- IC50 [2]: 19 nM
- allergenic potency (Prel) at 25% inhibition (relative to native Phl p 5b) [2]: 0.595
- allergenic potency (Prel) at 50% inhibition (relative to native Phl p 5b) [2]: 0.314
- inhibition value (inhibitor concentration at 25% inhibition) [2]: 8.6e-10 mol/L
- IC50 [3]: 2.2 nM
- allergenic potency (Prel) at 25% inhibition (relative to native Phl p 5b) [3]: 0.336
- allergenic potency (Prel) at 50% inhibition (relative to native Phl p 5b) [3]: 0.119
- inhibition value (inhibitor concentration at 25% inhibition) [3]: 6.4e-10 mol/L
- Inhibition value 25% (concentration of the inhibitor at 25% inhibition) [4, 8]: 4.5e-10 mol/L
- IC50 [4, 8]: 12 nM
- Inhibition value 25% (concentration of the inhibitor at 25% inhibition) [4, 9]: 1.2e-09 mol/L
- IC50 [4, 9]: 120 nM
- Inhibition value 25% (concentration of the inhibitor at 25% inhibition) [4, 10]: 8.6e-10 mol/L
- IC50 [4, 10]: 19 nM
- Inhibition value 25% (concentration of the inhibitor at 25% inhibition) [4, 11]: 1.3e-09 mol/L
- IC50 [4, 11]: 83 nM
- Inhibition value 25% (concentration of the inhibitor at 25% inhibition) [4, 12]: 6.4e-10 mol/L
- IC50 [4, 12]: 2.2 nM
- Allergenic potency (Prel) 25% ([4]; individual serum II/3): 0.5950
- Allergenic potency (Prel) 25% ([4]; individual serum II/12): 0.391
- Allergenic potency (Prel) 25% ([4]; individual serum II/17): 0.336
- Allergenic potency (Prel) 25% ([4]; serum pool Bor 18/100): 0.739
- Allergenic potency (Prel) 25% ([4]; serum pool We 6/97): 0.415
- Allergenic potency (Prel) 50% ([4]; individual serum II/3): 0.3140
- Allergenic potency (Prel) 50% ([4]; individual serum II/12): 0.082
- Allergenic potency (Prel) 50% ([4]; individual serum II/17): 0.1190
- Allergenic potency (Prel) 50% ([4]; serum pool Bor 18/100): 0.3490
- Allergenic potency (Prel) 50% ([4]; serum pool We 6/97): 0.0510
- EAST inhibition curve / inhibitory effect (in words) [4]: exhibits this effect in the higher range to a somewhat greater degree
- Allergenicity from EAST inhibition curves (in words) [4]: either no reduction, or only a reduction which is for the most part slight
- Incorporation of [3H]-thymidine into TCL 1 Wöl (stimulation index class) ([5]; primary stimulator n Phl p 5): + (1-2 (+))
- Incorporation of [3H]-thymidine into TCL 3 Fre (stimulation index class) ([5]; primary stimulator n Phl p 5): + (1-2 (+))
- Incorporation of [3H]-thymidine into TCL 5 17.4 (stimulation index class) [5]: + (1-2 (+))
- Incorporation of [3H]-thymidine into TCL 6 Mah (stimulation index class) ([5]; primary stimulator r Phl p 5a, r Phl p 5b): ++ (5-10 (++))
- Incorporation of [3H]-thymidine into TCL 7 19.2 (stimulation index class) [5]: +++ (>10 (+++))
- Incorporation of [3H]-thymidine into TCL 8 20.1 (stimulation index class) [5]: +++ (>10 (+++))
- IC50 [6]: 12 nM
- allergenic potency (Prel) at 25% inhibition (relative to native Phl p 5b) [6]: 0.739
- allergenic potency (Prel) at 50% inhibition (relative to native Phl p 5b) [6]: 0.349
- inhibition value (inhibitor concentration at 25% inhibition) [6]: 4.5e-10 mol/L
- IC50 [7]: 120 nM
- allergenic potency (Prel) at 25% inhibition (relative to native Phl p 5b) [7]: 0.415
- allergenic potency (Prel) at 50% inhibition (relative to native Phl p 5b) [7]: 0.051
- inhibition value (inhibitor concentration at 25% inhibition) [7]: 1.2e-09 mol/L

B2: rPhl p 5b point mutant PM3 (A13C) (protein)
chain: B1 chain with A13C, D32N, L49D, A50K
- IC50 [1]: 91 nM
- allergenic potency (Prel) at 25% inhibition (relative to native Phl p 5b) [1]: 0.389
- allergenic potency (Prel) at 50% inhibition (relative to native Phl p 5b) [1]: 0.075
- inhibition value (inhibitor concentration at 25% inhibition) [1]: 1.3e-09 mol/L
- IC50 [2]: 15 nM
- allergenic potency (Prel) at 25% inhibition (relative to native Phl p 5b) [2]: 0.922
- allergenic potency (Prel) at 50% inhibition (relative to native Phl p 5b) [2]: 0.399
- inhibition value (inhibitor concentration at 25% inhibition) [2]: 5.5e-10 mol/L
- IC50 [3]: 5.5 nM
- allergenic potency (Prel) at 25% inhibition (relative to native Phl p 5b) [3]: 0.855
- allergenic potency (Prel) at 50% inhibition (relative to native Phl p 5b) [3]: 0.468
- inhibition value (inhibitor concentration at 25% inhibition) [3]: 2.5e-10 mol/L
- Inhibition value 25% (concentration of the inhibitor at 25% inhibition) [4, 8]: 2e-10 mol/L
- IC50 [4, 8]: 4.8 nM
- Inhibition value 25% (concentration of the inhibitor at 25% inhibition) [4, 9]: 8.3e-10 mol/L
- IC50 [4, 9]: 30 nM
- Inhibition value 25% (concentration of the inhibitor at 25% inhibition) [4, 10]: 5.5e-10 mol/L
- IC50 [4, 10]: 15 nM
- Inhibition value 25% (concentration of the inhibitor at 25% inhibition) [4, 11]: 1.3e-09 mol/L
- IC50 [4, 11]: 91 nM
- Inhibition value 25% (concentration of the inhibitor at 25% inhibition) [4, 12]: 2.5e-10 mol/L
- IC50 [4, 12]: 5.5 nM
- Allergenic potency (Prel) 25% ([4]; individual serum II/3): 0.9220
- Allergenic potency (Prel) 25% ([4]; individual serum II/12): 0.389
- Allergenic potency (Prel) 25% ([4]; individual serum II/17): 0.855
- Allergenic potency (Prel) 25% ([4]; serum pool Bor 18/100): 1.641
- Allergenic potency (Prel) 25% ([4]; serum pool We 6/97): 0.611
- Allergenic potency (Prel) 50% ([4]; individual serum II/3): 0.3990
- Allergenic potency (Prel) 50% ([4]; individual serum II/12): 0.075
- Allergenic potency (Prel) 50% ([4]; individual serum II/17): 0.4680
- Allergenic potency (Prel) 50% ([4]; serum pool Bor 18/100): 0.8640
- Allergenic potency (Prel) 50% ([4]; serum pool We 6/97): 0.2030
- EAST inhibition curve / inhibitory effect (in words) [4]: binding curves which are similar to that obtained with natural Ph1 p 5b
- Allergenicity from EAST inhibition curves (in words) [4]: either no reduction, or only a reduction which is for the most part slight
- Incorporation of [3H]-thymidine into TCL 3 Fre (stimulation index class) ([5]; primary stimulator n Phl p 5): + (1-2 (+))
- Incorporation of [3H]-thymidine into TCL 4 Mer (stimulation index class) ([5]; primary stimulator n Phl p 5): + (1-2 (+))
- Incorporation of [3H]-thymidine into TCL 5 17.4 (stimulation index class) [5]: + (1-2 (+))
- Incorporation of [3H]-thymidine into TCL 7 19.2 (stimulation index class) [5]: +++ (>10 (+++))
- Incorporation of [3H]-thymidine into TCL 8 20.1 (stimulation index class) [5]: + (1-2 (+))
- IC50 [6]: 4.8 nM
- allergenic potency (Prel) at 25% inhibition (relative to native Phl p 5b) [6]: 1.64
- allergenic potency (Prel) at 50% inhibition (relative to native Phl p 5b) [6]: 0.864
- inhibition value (inhibitor concentration at 25% inhibition) [6]: 2e-10 mol/L
- IC50 [7]: 30 nM
- allergenic potency (Prel) at 25% inhibition (relative to native Phl p 5b) [7]: 0.611
- allergenic potency (Prel) at 50% inhibition (relative to native Phl p 5b) [7]: 0.203
- inhibition value (inhibitor concentration at 25% inhibition) [7]: 8.3e-10 mol/L

From patent US6919086B1, “Graminae pollen allergen mutants for specific immunotherapy, and production and use of the same” (Merck Patent Gesellschaft mit, priority 1997, dated 2005)
